Assay results taken from patent US20210187091A1 (published 2021).
Residue numbers refer to the chain shown, from its start. Where two headings read alike, the source gives them in different places.

B1: DH270.4 (antibody, V domains shown)
VH: EVQLVQSGAEMKNPGASVKVSCAASGYGFTDFYIHWVRLAPGHGLQWMGWMNPKTGRTNNAQDFQGRVILTRDTSIGTAYMELRRLTSDDTAVYYCVTGGWISPYYDSSYYPNFDHWGQGTLITVSS
VL: QSALTQPASVSGSPGQSITISCTGTSYDVAKFDLVSWFQQHPGKAPKYMIYEVNKWPSGVSHRFSGSKSGNTASLTISGLQAEDEADYYCCSFGGSATVVCGGGTKVTVL
B2: DH270.IA1 (antibody, V domains shown)
VH: QVQLVQSGAEVKKPGASVKVSCKASGYTFTDYYIHWVRQAPGQGLEWMGWINPNTGRTNYAQKFQGRVIMTRDTSISTAYMELSRLRSDDTAVYYCARGGWIGLYYDSSGYPNFDYWGQGTLVTVSS
VL: QSALTQPASVSGSPGQSITISCTGTSYDVGSYNLVSWYQQHPGKAPKLMIYEVSKRPSGVSNRFSGSKSGNTASLTISGLQAEDEADYYCCSYAGSSTVIFGGGTKLTVL
B3: DH270.2 (antibody, V domains shown)
VH: QVQLVQSGAEMKKPGASVRVSCKASGYTFTDYYIHWVRQAPGQGPEWMGWINPSTGRTNSPQKFQGRVIMTRDTSISTAYMDLNRLTSDDTAMYYCTTGGWIGLYSDTSGYPNFDYWGQGTLVTVSS
VL: B2 VL with S26N, A45V, L48Y, M49I, S54N, T98I, V99I, I100F, L110I
B4: DH270.5 (antibody, V domains shown)
VH: QVQLVQSGAEVKNPGASVKVSCAPSGYTFTDFYIHWVRLAPGQGLEWLGWMNPKTGRTNQGQNFQGRVIMTRDTSIGTAYMELRSLTSDDTAVYYCVTGAWISDYYDSSYYPNFDHWGQGTLVTVSS
VL: LPVLTQPASVSGSPGQSITISCTGTIYDVGKFDLVSWYQHHPGKAPKYLIYEVKKWPSGVSHRFSGSKSGNTASLTISGLQVEDEADYYCCSFGGSAAVVCGGGTKVTVL
B5: DH270.3 (antibody, V domains shown)
VH: B1 VH with E1Q, G28T, H43Q, Q46E, D63N, L70M, I123V
VL: B1 VL with A30G, F38Y

Assays:
Man9-V3 glycopeptide [1] = molecular target: T1, Man9-V3 glycopeptide (Man9GlcNAc2 at N301 and at N332; disulfide bridge between C296 and C331 (cyclized); biotin tag); assay: BLI
T1 peptide: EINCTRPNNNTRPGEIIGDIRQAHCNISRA

Man9-V3 glycopeptide [2] = molecular target: T1, Man9-V3 glycopeptide; assay: BLI

| Binder | Kd (Man9-V3 glycopeptide [1]) | Kd (Man9-V3 glycopeptide [2]) |
| --- | --- | --- |
| B1 | 346 nM |  |
| B2 |  | 3290 nM |
| B3 | 4770 nM |  |
| B4 | 281 nM |  |
| B5 | 195 nM |  |
